{"source": "patent US20200268847A1", "about": "“Methods of Treating Newly Diagnosed Multiple Myeloma with a Combination of An Antibody that Specifically Binds CD38, Lenalidomide and Dexamethasone” (Janssen Biotech, Inc., priority 2019, published 2020)", "key": {"[1]": {"system": "transplant-ineligible NDMM patients", "experiment": "MAIA subgroup analysis by age (<75 vs >75 y): safety (TEAEs, discontinuations)", "type": "in vivo, human", "experimental": "To examine the impact of age on the efficacy and safety of D-Rd vs Rd in this patient population, a subgroup analysis was conducted within patients <75 and >75 y of age.\nTransplant-ineligible NDMM patients were randomized 1:1 to Rd±DARA; stratification was based on age (<75 vs >75 years), ISS (I, II, III), and region (North America vs Other). In standard Rd dosing, patients received 28-day cycles of lenalidomide 25 mg PO QD on Days 1-21 and dexamethasone 40 mg PO on Days 1, 8, 15 and 22 until progression. A portion of patients received 10 mg lenalidomide and 20 mg dexamethasone at the beginning of the treatment. In the DRd arm, patients received daratumumab (DARZALEX®) 16 mg/kg IV QW for Cycles 1-2, Q2W for Cycles 3-6, and Q4W thereafter until progression. PFS was the primary endpoint."}, "[2]": {"system": "minimal residual disease (clonal multiple myeloma cells in bone marrow)", "experiment": "MAIA: minimal residual disease in bone marrow aspirates by next-generation sequencing (clonoSEQ version 2.0)", "type": "in vivo, human", "settings": "threshold 1 tumor cell per 10^5 white cells", "description": "MRD status may be assessed from bone marrow aspirate samples using for example next generation sequencing (NGS) of immunoglobulin heavy and light chains. The updated, analytically validated version of the clonoSEQ® Assay (Version 2) by Adaptive Biotechnologies may be used for the detection, quantification and analysis of MRD.\nA central laboratory performed disease evaluations (serum and 24-hour urine samples) every 28 days for 2 years, and then every 8 weeks until disease progression. For patients with positive serum immunofixation and daratumumab (DARZALEX®) interference, complete responses were confirmed using reflex assays (McCudden et al., Clin Chem Lab Med 54:1095-1104, 2016). Minimal residual disease was evaluated by next-generation sequencing assays (clonoSEQ® version 2.0; Adaptive Biotechnologies) on bone marrow aspirates collected at baseline, at time of suspected complete or stringent complete response (undetectable M-protein on two consecutive serum and urine electrophoresis tests), and at 12, 18, 24, and 30 months post-first dose in patients who achieved a complete response or better."}, "[3]": {"settings": "grade 3/4 TEAEs, <75 y patients"}, "[4]": {"settings": "grade 3/4 TEAEs, >75 y patients"}}, "data": [{"substance": "daratumumab (DARZALEX®) group: daratumumab (DARZALEX®) in combination with lenalidomide and dexamethasone", "values": [{"measurement": "discontinuation rate due to infections", "setting": "[1]; <75 y", "result": 1, "unit": "%"}, {"measurement": "discontinued lenalidomide due to TEAEs", "setting": "[1]; <75 y", "result": 15, "unit": "%"}, {"measurement": "discontinued treatment due to TEAEs", "setting": "[1]; <75 y", "result": 5, "unit": "%"}, {"measurement": "discontinuation rate due to infections", "setting": "[1]; >75 y", "result": 0, "unit": "%"}, {"measurement": "discontinued lenalidomide due to TEAEs", "setting": "[1]; >75 y", "result": 29, "unit": "%"}, {"measurement": "discontinued treatment due to TEAEs", "setting": "[1]; >75 y", "result": 10, "unit": "%"}, {"measurement": "anemia", "setting": "[1]; [3]", "result": 9, "unit": "%"}, {"measurement": "leukopenia", "setting": "[1]; [3]", "result": 10, "unit": "%"}, {"measurement": "lymphopenia", "setting": "[1]; [3]", "result": 12, "unit": "%"}, {"measurement": "neutropenia", "setting": "[1]; [3]", "result": 43, "unit": "%"}, {"measurement": "pneumonia", "setting": "[1]; [3]", "result": 13, "unit": "%"}, {"measurement": "anemia", "setting": "[1]; [4]", "result": 16, "unit": "%"}, {"measurement": "leukopenia", "setting": "[1]; [4]", "result": 12, "unit": "%"}, {"measurement": "lymphopenia", "setting": "[1]; [4]", "result": 19, "unit": "%"}, {"measurement": "neutropenia", "setting": "[1]; [4]", "result": 60, "unit": "%"}, {"measurement": "pneumonia", "setting": "[1]; [4]", "result": 15, "unit": "%"}, {"measurement": "thrombocytopenia", "setting": "[1]; [4]", "result": 8, "unit": "%"}, {"measurement": "Negative status for minimal residual disease", "setting": "[2]; ITT population", "result": "89 (24.2) no. (%)"}, {"measurement": "negative status for minimal residual disease, times as high as in the control group", "setting": "[2]", "result": "more than 3 times"}, {"measurement": "patients minimal residual disease-negative", "setting": "[2]; ITT, P<0.0001", "result": 24.2, "unit": "%"}]}]}
